Assay results from patent US8715676B2, “Production and uses of type I ribosome inactivating proteins” (priority 2008, dated 2014).
Where two headings read alike, the source gives them in different places.

What was measured:
LO2 non-cancer cells = assay: Cytotoxicity in non-cancer cells in vitro (TOX8 viability, 72 h); format: cell-based
Method: (§1) Human breast cancer cells, MDA 231 and BT 474, were grown in tissue culture to assay for the concentration at which 50% of the cells are inhibited from growing (IC50). The cells were seeded in 96-well plates at 5000 cells per well and grown overnight in RPMI 1640 supplemented with 10% fetal bovine serum and 15 μg/ml insulin. The culture medium was replaced. The recombinant cucurmosin, natural cucurmosin and vinblastine were added to the cells at various concentrations. Likewise, the non-cancer cells, LO2 and lymphocytes were treated with these drugs at different concentrations. The cells were grown for an additional 72 hours and then 20 μl of TOX8 was added to each well. The cells were incubated another 8 hours at 37° C., 5% CO2 to allow time for the cells to metabolize the TOX8 indicator. Absorbance readings at 600 nm were taken of each well. Viability was indicated by a drop in absorbance at 600 nm readings.

[1] = tested on: lymphocytes (non-cancer cells); assay: as above; format: cell-based
Method: as §1

[2] = tested on: MDA 231 human breast cancer cells; assay: Cytotoxicity in cancer cells in vitro (TOX8 viability, 72 h); format: cell-based
Method: as §1

[3] = tested on: BT 474 human breast cancer cells; assay: as above; format: cell-based; settings: TB474 (BT 474) cells
Method: as §1

HMEL tumors [4] = assay: Treating HMEL tumors in mice by tail vein injection; format: in vivo, NOD/SCID mice
Method: (§2) Human lung cancer cells, […] or A549, were used to induce tumor formation in backs of NOD/SCID mice (JAX, #001303). The cells were maintained in culture. In each experiment, 5 million cells were injected into the back of the mice. Tumors formed in 2 to 3 weeks. Tumor sizes were measured using a digital caliper and then areas calculated.
(§3) In one experiment, either 5 or 50 μg recombinant cucurmosin was injected into the HMEL tumors in 100 μl of saline solution on the days that the tumors were measured. Mouse 2 had tumors in both sides of its back which were each treated separately. Over the 18 day period, the mouse injected with no cucurmosin saw its tumor increase 267% (TABLE 2). […] Mouse 1 and 3 with HMEL tumors after 18 days intratumoral treatment (Table 2), were continually administered recombinant cucurmosin by tail vein injection using 50 μg of recombinant cucurmosin in 100 μl saline solution at day 0 (the same day as day 18 of intratumoral treatment) and day 5. […] The results of these tests are depicted in FIG. 1.

HMEL tumors [5] = assay: Treating HMEL tumors in mice, intratumoral injection; format: in vivo, NOD/SCID mice; settings: for Tumor growth: over 18 days
Method: as §2, §3

A549 tumors = assay: Treating A549 tumors in mice, intratumoral injection; format: in vivo, NOD/SCID mice; settings: for Tumor growth: Day 1 to Day 11
Method: as §2
In another group of mice, carrying tumors derived from A549 cells, 5 or 50 μg treatments of directly injected recombinant cucurmosin into the tumors was able to reduce tumors by 15 and 33%, respectively while the negative control saw the tumor grow 150% (TABLE 3).

## CC[C@]1(O)C[C@@H]2CN(CCc3c([nH]c4ccccc34)[C@@](C(=O)OC)(c3cc4c(cc3OC)N(C)[C@H]3[C@@](O)(C(=O)OC)[C@H](OC(C)=O)[C@]5(CC)C=CCN6CC[C@]43[C@@H]65)C2)C1 [Vinblastine, reference compound]
LO2 non-cancer cells
  IC50: 68 nM
[1]; Lymphocyte
  IC50: 73 nM
[2]; Homo sapiens, MDA-MB-231, MDA231 cells
  IC50: 25 nM
[3]; Homo sapiens
  IC50: 26 nM

B1: Recombinant Cucurmosin: 297 amino acid pro-cucurmosin (SEQ ID 4), type 1 ribosome inactivating protein expressed in E. coli with C-terminal histidine tag (protein, listed as Cucurbita moschata)
chain: MNVRFDLSSATSSSYKTFIKNLREALPKDGKVYDIPVLLSTVMDSRRFILIDLVNYDGQSITAAIDVLNVYIVAYSTGTVSYFFQQVPAQAPKLLFKGTQQRTLPYTGNYENLQTAAKKLRENIELGLPALDSAITTLFHYNAEAAASALLVLIQTTSEAARFRYIELQIANNVGTKFKPSQTIISLENNWSALSKQIQIAKNKNGQFETPVILIDPQGNRVQITNVTSNVVTQNIKLLLNIGATVDTMAANDDVDEMTSGVPIRLSSCGHEMERKSVENGRHANYVSVLEHHHHHH
modifications: C-terminal His tag
HMEL tumors [4]; 50 μg tail vein injection
  Toxic effects on the mice: no obvious toxic effects
HMEL tumors [4]; Mouse 3, 50 μg tail vein at day 0 and day 5, seven days after initial injection
  Tumor size increase: 7%
HMEL tumors [5]; 5 or 50 μg intratumoral, 18 days
  Side-effects in mice: did not suffer any noticeable side-effects
HMEL tumors [5]; Mouse 2 left, 5 μg intratumoral, Day 1
  Tumor Size: 39.4 mm^2
HMEL tumors [5]; Mouse 2 left, 5 μg intratumoral, Day 3
  Tumor Size: 33 mm^2
HMEL tumors [5]; Mouse 2 left, 5 μg intratumoral, Day 5
  Tumor Size: 23 mm^2
HMEL tumors [5]; Mouse 2 left, 5 μg intratumoral, Day 8
  Tumor Size: 19.7 mm^2
HMEL tumors [5]; Mouse 2 left, 5 μg intratumoral, Day 15
  Tumor Size: 12.5 mm^2
HMEL tumors [5]; Mouse 2 left, 5 μg intratumoral, Day 18
  Tumor Size: 0 mm^2
HMEL tumors [5]; Mouse 2 left, 5 μg intratumoral
  Tumor growth: −100%
HMEL tumors [5]; Mouse 2 right, 5 μg intratumoral, Day 1
  Tumor Size: 27.8 mm^2
HMEL tumors [5]; Mouse 2 right, 5 μg intratumoral, Day 3
  Tumor Size: 24.8 mm^2
HMEL tumors [5]; Mouse 2 right, 5 μg intratumoral, Day 5
  Tumor Size: 18.5 mm^2
HMEL tumors [5]; Mouse 2 right, 5 μg intratumoral, Day 8
  Tumor Size: 12.2 mm^2
HMEL tumors [5]; Mouse 2 right, 5 μg intratumoral, Day 15
  Tumor Size: 0 mm^2
HMEL tumors [5]; Mouse 2 right, 5 μg intratumoral, Day 18
  Tumor Size: 0 mm^2
HMEL tumors [5]; Mouse 2 right, 5 μg intratumoral
  Tumor growth: −100%
HMEL tumors [5]; Mouse 3 (largest tumor), 5 μg intratumoral
  Effect on tumor growth compared to the negative control: slow the tumor growth compared to the negative control
HMEL tumors [5]; Mouse 3, 5 μg intratumoral, Day 1
  Tumor Size: 162.2 mm^2
HMEL tumors [5]; Mouse 3, 5 μg intratumoral, Day 3
  Tumor Size: 158 mm^2
HMEL tumors [5]; Mouse 3, 5 μg intratumoral, Day 5
  Tumor Size: 151.8 mm^2
HMEL tumors [5]; Mouse 3, 5 μg intratumoral, Day 8
  Tumor Size: 186.7 mm^2
HMEL tumors [5]; Mouse 3, 5 μg intratumoral, Day 15
  Tumor Size: 206.7 mm^2
HMEL tumors [5]; Mouse 3, 5 μg intratumoral, Day 18
  Tumor Size: 231.2 mm^2
HMEL tumors [5]; Mouse 3, 5 μg intratumoral
  Tumor growth: 43%
HMEL tumors [5]; Mouse 4, 50 μg intratumoral, Day 1
  Tumor Size: 23.9 mm^2
HMEL tumors [5]; Mouse 4, 50 μg intratumoral, Day 3
  Tumor Size: 12.2 mm^2
HMEL tumors [5]; Mouse 4, 50 μg intratumoral, Day 5
  Tumor Size: 9.4 mm^2
HMEL tumors [5]; Mouse 4, 50 μg intratumoral, Day 8
  Tumor Size: 0 mm^2
HMEL tumors [5]; Mouse 4, 50 μg intratumoral, Day 15
  Tumor Size: 0 mm^2
HMEL tumors [5]; Mouse 4, 50 μg intratumoral, Day 18
  Tumor Size: 0 mm^2
HMEL tumors [5]; Mouse 4, 50 μg intratumoral
  Tumor growth: −100%
HMEL tumors [5]; either 5 or 50 μg intratumoral, 18 day period
  Effect on tumors smaller than 40 mm^2: completely abrogated
LO2 non-cancer cells
  IC50: 1200 nM
[1]
  IC50: 2500 nM
A549 tumors; 5 μg directly injected into the tumors
  Tumor reduction: 15%
A549 tumors; 50 μg directly injected into the tumors
  Tumor reduction: 33%
A549 tumors; Mouse 2, 5 μg intratumoral, Day 1
  Tumor Size: 34.7 mm^2
A549 tumors; Mouse 2, 5 μg intratumoral
  Tumor growth: −15%
A549 tumors; Mouse 2, 5 μg intratumoral, Day 3
  Tumor Size: 38.8 mm^2
A549 tumors; Mouse 2, 5 μg intratumoral, Day 5
  Tumor Size: 42.4 mm^2
A549 tumors; Mouse 2, 5 μg intratumoral, Day 7
  Tumor Size: 40.8 mm^2
A549 tumors; Mouse 2, 5 μg intratumoral, Day 9
  Tumor Size: 39.5 mm^2
A549 tumors; Mouse 2, 5 μg intratumoral, Day 11
  Tumor Size: 29.5 mm^2
A549 tumors; Mouse 3, 50 μg intratumoral, Day 1
  Tumor Size: 100.6 mm^2
A549 tumors; Mouse 3, 50 μg intratumoral
  Tumor growth: −33%
A549 tumors; Mouse 3, 50 μg intratumoral, Day 3
  Tumor Size: 104.1 mm^2
A549 tumors; Mouse 3, 50 μg intratumoral, Day 5
  Tumor Size: 108.6 mm^2
A549 tumors; Mouse 3, 50 μg intratumoral, Day 7
  Tumor Size: 113.1 mm^2
A549 tumors; Mouse 3, 50 μg intratumoral, Day 9
  Tumor Size: 78.8 mm^2
A549 tumors; Mouse 3, 50 μg intratumoral, Day 11
  Tumor Size: 67.3 mm^2
[2]; MDA231 cells
  IC50: 23 nM
[2]; MDA231 cells, listed as recombinant cucurmosin
  IC50: > 20 nM
[3]
  IC50: 22 nM
[3]; listed as recombinant cucurmosin
  IC50: > 20 nM
